# Measurements taken from US20170002361A1.
# Molecular target: Flag-tagged NS5B (hepatitis C virus)
# Assay: cell-based or functional assay
substance,measurement,value
protein kinase C-related kinase 2 (PRK2) (from UniProt Q16513 1-984) (enzyme),"level of p-NS5B (32P-orthophosphate metabolic labeling, immunoprecipitation, autoradiography) after PRK2 silencing with siPRK2-1",55%
